Patent US20220064329A1 (Novo Nordisk, published 2022)
Residue numbers refer to the chain shown, from its start. Names may count otherwise.

T1: recombinant human activated Factor VII (FVIIa) (human, UniProt P08709 61-212; P08709 213-466, ten glutamate residues of the Gla domain may be gamma-carboxylated)
T1 construct: chains tethered by a disulfide bond; also called Factor VIIa; rFVIIa
T1 sequence 1: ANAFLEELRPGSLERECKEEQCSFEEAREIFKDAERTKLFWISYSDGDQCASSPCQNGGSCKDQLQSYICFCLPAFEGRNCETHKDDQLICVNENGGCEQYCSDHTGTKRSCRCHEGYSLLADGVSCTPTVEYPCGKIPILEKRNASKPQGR
T1 sequence 2: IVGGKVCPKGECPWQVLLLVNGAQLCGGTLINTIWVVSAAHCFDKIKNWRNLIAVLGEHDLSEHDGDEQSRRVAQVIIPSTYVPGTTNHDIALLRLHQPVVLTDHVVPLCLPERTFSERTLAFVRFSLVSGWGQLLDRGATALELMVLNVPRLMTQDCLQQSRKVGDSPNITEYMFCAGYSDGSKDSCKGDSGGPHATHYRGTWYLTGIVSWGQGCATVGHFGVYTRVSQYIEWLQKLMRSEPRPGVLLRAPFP

B1: VH SEQ ID NO 586 / VL SEQ ID NO 454 (antibody, IgG4, V domains shown)
VH: QVQLQESGPGLVKPSDTLSLTCAVSGYSISSDSAWSWIRQPPGKGLEWIGYIQYSGSTNYNPSLKSRVTMSVDTSKNQFSLKLSSVTALDTAVYYCARSVNYYGNSFAVGYWGQGTLVTVSS
VL: EIVLTQSPATLSLSPGERATLSCRASQGVSDYLHWYQQKPGEAPRLLIKYASQPATGIPARFSGSGSGTDFTLTISSLEPEDFAVYYCQNGHSFPLTFGQGTKLEIK
notes: humanized 11F2; IgG4 S228P/kappa
B2: VH SEQ ID NO 602 / VL SEQ ID NO 486 (antibody, IgG4, V domains shown)
VH: B1 VH with D16Q, A23T, Y27G, M70I, L89A
VL: B1 VL with E42Q, A84G
notes: as for B1
B3: VH SEQ ID NO 602 / VL SEQ ID NO 454 (antibody, IgG4, V domains shown)
VH: B1 VH with D16Q, A23T, Y27G, M70I, L89A
VL: B1 VL
notes: as for B1
B4: VH SEQ ID NO 602 / VL SEQ ID NO 414 (antibody, IgG4, V domains shown)
VH: B1 VH with D16Q, A23T, Y27G, M70I, L89A
VL: B1 VL with H34A, E42Q
notes: as for B1
B5: VH SEQ ID NO 594 / VL SEQ ID NO 486 (antibody, IgG4, V domains shown)
VH: B1 VH with G45K, Y111P
VL: B1 VL with E42Q, A84G
notes: as for B1
B6: VH SEQ ID NO 602 / VL SEQ ID NO 470 (antibody, IgG4, V domains shown)
VH: B1 VH with D16Q, A23T, Y27G, M70I, L89A
VL: B1 VL with E42Q
notes: as for B1
B7: VH SEQ ID NO 594 / VL SEQ ID NO 342 (antibody, IgG4, V domains shown)
VH: B1 VH with G45K, Y111P
VL: B1 VL with V29I, E42Q, A51T, T69R, Q100A, I106L
notes: as for B1
B8: VH SEQ ID NO 602 / VL SEQ ID NO 502 (antibody, IgG4, V domains shown)
VH: B1 VH with D16Q, A23T, Y27G, M70I, L89A
VL: B1 VL with E42Q, A51T
notes: as for B1
B9: VH SEQ ID NO 594 / VL SEQ ID NO 318 (antibody, IgG4, V domains shown)
VH: B1 VH with G45K, Y111P
VL: B1 VL with V29I, A51T
notes: as for B1
B10: VH SEQ ID NO 586 / VL SEQ ID NO 470 (antibody, IgG4, V domains shown)
VH: B1 VH
VL: B1 VL with E42Q
notes: as for B1
B11: VH SEQ ID NO 594 / VL SEQ ID NO 326 (antibody, IgG4, V domains shown)
VH: B1 VH with G45K, Y111P
VL: B1 VL with V29I, A51T, A84G, Q100A, I106L
notes: as for B1
B12: VH SEQ ID NO 602 / VL SEQ ID NO 382 (antibody, IgG4, V domains shown)
VH: B1 VH with D16Q, A23T, Y27G, M70I, L89A
VL: B1 VL with V29L
notes: as for B1
B13: VH SEQ ID NO 602 / VL SEQ ID NO 366 (antibody, IgG4, V domains shown)
VH: B1 VH with D16Q, A23T, Y27G, M70I, L89A
VL: B1 VL with V29L, H34A
notes: as for B1
B14: VH SEQ ID NO 586 / VL SEQ ID NO 462 (antibody, IgG4, V domains shown)
VH: B1 VH
VL: B1 VL with E42Q, Q100A
notes: as for B1
B15: VH SEQ ID NO 594 / VL SEQ ID NO 470 (antibody, IgG4, V domains shown)
VH: B1 VH with G45K, Y111P
VL: B1 VL with E42Q
notes: as for B1
B16: VH SEQ ID NO 610 / VL SEQ ID NO 318 (antibody, IgG4, V domains shown)
VH: B1 VH with D16Q, A23T, Y27G, S30T, M70I, L89A
VL: B1 VL with V29I, A51T
notes: as for B1
B17: VH SEQ ID NO 602 / VL SEQ ID NO 494 (antibody, IgG4, V domains shown)
VH: B1 VH with D16Q, A23T, Y27G, M70I, L89A
VL: B1 VL with E42Q, F83V
notes: as for B1
B18: VH SEQ ID NO 602 / VL SEQ ID NO 310 (antibody, IgG4, V domains shown)
VH: B1 VH with D16Q, A23T, Y27G, M70I, L89A
VL: B1 VL with V29I, H34A, E42Q
notes: as for B1
B19: VH SEQ ID NO 602 / VL SEQ ID NO 478 (antibody, IgG4, V domains shown)
VH: B1 VH with D16Q, A23T, Y27G, M70I, L89A
VL: B1 VL with E42Q, N90Q
notes: as for B1
B20: VH SEQ ID NO 594 / VL SEQ ID NO 382 (antibody, IgG4, V domains shown)
VH: B1 VH with G45K, Y111P
VL: B1 VL with V29L
notes: as for B1
B21: VH SEQ ID NO 586 / VL SEQ ID NO 486 (antibody, IgG4, V domains shown)
VH: B1 VH
VL: B1 VL with E42Q, A84G
notes: as for B1
B22: VH SEQ ID NO 594 / VL SEQ ID NO 462 (antibody, IgG4, V domains shown)
VH: B1 VH with G45K, Y111P
VL: B1 VL with E42Q, Q100A
notes: as for B1
B23: VH SEQ ID NO 594 / VL SEQ ID NO 494 (antibody, IgG4, V domains shown)
VH: B1 VH with G45K, Y111P
VL: B1 VL with E42Q, F83V
notes: as for B1
B24: VH SEQ ID NO 594 / VL SEQ ID NO 358 (antibody, IgG4, V domains shown)
VH: B1 VH with G45K, Y111P
VL: B1 VL with V29I, E42Q, A51T
notes: as for B1
B25: VH SEQ ID NO 602 / VL SEQ ID NO 430 (antibody, IgG4, V domains shown)
VH: B1 VH with D16Q, A23T, Y27G, M70I, L89A
VL: B1 VL with H34A, E42Q, A84G
notes: as for B1
B26: VH SEQ ID NO 602 / VL SEQ ID NO 406 (antibody, IgG4, V domains shown)
VH: B1 VH with D16Q, A23T, Y27G, M70I, L89A
VL: B1 VL with H34A, E42Q, Q100A
notes: as for B1
B27: VH SEQ ID NO 602 / VL SEQ ID NO 342 (antibody, IgG4, V domains shown)
VH: B1 VH with D16Q, A23T, Y27G, M70I, L89A
VL: B1 VL with V29I, E42Q, A51T, T69R, Q100A, I106L
notes: as for B1
B28: VH SEQ ID NO 610 / VL SEQ ID NO 310 (antibody, IgG4, V domains shown)
VH: B1 VH with D16Q, A23T, Y27G, S30T, M70I, L89A
VL: B1 VL with V29I, H34A, E42Q
notes: as for B1
B29: VH SEQ ID NO 594 / VL SEQ ID NO 350 (antibody, IgG4, V domains shown)
VH: B1 VH with G45K, Y111P
VL: B1 VL with V29I, E42Q, A51T, Q100A, I106L
notes: as for B1
B30: VH SEQ ID NO 594 / VL SEQ ID NO 478 (antibody, IgG4, V domains shown)
VH: B1 VH with G45K, Y111P
VL: B1 VL with E42Q, N90Q
notes: as for B1
B31: VH SEQ ID NO 602 / VL SEQ ID NO 318 (antibody, IgG4, V domains shown)
VH: B1 VH with D16Q, A23T, Y27G, M70I, L89A
VL: B1 VL with V29I, A51T
notes: as for B1
B32: VH SEQ ID NO 602 / VL SEQ ID NO 358 (antibody, IgG4, V domains shown)
VH: B1 VH with D16Q, A23T, Y27G, M70I, L89A
VL: B1 VL with V29I, E42Q, A51T
notes: as for B1
B33: VH SEQ ID NO 594 / VL SEQ ID NO 454 (antibody, IgG4, V domains shown)
VH: B1 VH with G45K, Y111P
VL: B1 VL
notes: as for B1
B34: VH SEQ ID NO 602 / VL SEQ ID NO 326 (antibody, IgG4, V domains shown)
VH: B1 VH with D16Q, A23T, Y27G, M70I, L89A
VL: B1 VL with V29I, A51T, A84G, Q100A, I106L
notes: as for B1
B35: VH SEQ ID NO 594 / VL SEQ ID NO 502 (antibody, IgG4, V domains shown)
VH: B1 VH with G45K, Y111P
VL: B1 VL with E42Q, A51T
notes: as for B1
B36: VH SEQ ID NO 602 / VL SEQ ID NO 350 (antibody, IgG4, V domains shown)
VH: B1 VH with D16Q, A23T, Y27G, M70I, L89A
VL: B1 VL with V29I, E42Q, A51T, Q100A, I106L
notes: as for B1
B37: VH SEQ ID NO 594 / VL SEQ ID NO 334 (antibody, IgG4, V domains shown)
VH: B1 VH with G45K, Y111P
VL: B1 VL with V29I, E42Q
notes: as for B1
B38: VH SEQ ID NO 602 / VL SEQ ID NO 438 (antibody, IgG4, V domains shown)
VH: B1 VH with D16Q, A23T, Y27G, M70I, L89A
VL: B1 VL with H34A, E42Q, F83V
notes: as for B1
B39: VH SEQ ID NO 586 / VL SEQ ID NO 502 (antibody, IgG4, V domains shown)
VH: B1 VH
VL: B1 VL with E42Q, A51T
notes: as for B1
B40: VH SEQ ID NO 586 / VL SEQ ID NO 478 (antibody, IgG4, V domains shown)
VH: B1 VH
VL: B1 VL with E42Q, N90Q
notes: as for B1
B41: VH SEQ ID NO 586 / VL SEQ ID NO 494 (antibody, IgG4, V domains shown)
VH: B1 VH
VL: B1 VL with E42Q, F83V
notes: as for B1
B42: VH SEQ ID NO 602 / VL SEQ ID NO 462 (antibody, IgG4, V domains shown)
VH: B1 VH with D16Q, A23T, Y27G, M70I, L89A
VL: B1 VL with E42Q, Q100A
notes: as for B1
B43: VH SEQ ID NO 602 / VL SEQ ID NO 390 (antibody, IgG4, V domains shown)
VH: B1 VH with D16Q, A23T, Y27G, M70I, L89A
VL: B1 VL with H34A
notes: as for B1
B44: VH SEQ ID NO 602 / VL SEQ ID NO 334 (antibody, IgG4, V domains shown)
VH: B1 VH with D16Q, A23T, Y27G, M70I, L89A
VL: B1 VL with V29I, E42Q
notes: as for B1
B45: VH SEQ ID NO 610 / VL SEQ ID NO 326 (antibody, IgG4, V domains shown)
VH: B1 VH with D16Q, A23T, Y27G, S30T, M70I, L89A
VL: B1 VL with V29I, A51T, A84G, Q100A, I106L
notes: as for B1

Each binder was assayed against T1, recombinant human activated Factor VII … (assay: BLI (Fortebio)).

Row | Kd | Binder
1 | 16 nM | B1
2 | 15 nM | B2
3 | 13 nM | B3
4 | 310 nM | B4
5 | 33 nM | B5
6 | 13 nM | B6
7 | 120 nM | B7
8 | 14 nM | B8
9 | 23 nM | B9
10 | 15 nM | B10
11 | 22 nM | B11
12 | 14 nM | B12
13 | 51 nM | B13
14 | 18 nM | B14
15 | 35 nM | B15
16 | 10 nM | B16
17 | 14 nM | B17
18 | 48 nM | B18
19 | 24 nM | B19
20 | 140 nM | B20
21 | 18 nM | B21
22 | 39 nM | B22
23 | 43 nM | B23

Row | Kd | Binder
24 | 24 nM | B24
25 | 590 nM | B25
26 | 90 nM | B26
27 | 14 nM | B27
28 | 80 nM | B28
29 | 34 nM | B29
30 | 200 nM | B30
31 | 9 nM | B31
32 | 9.2 nM | B32
33 | 32 nM | B33
34 | 8.8 nM | B34
35 | 30 nM | B35
36 | 10 nM | B36
37 | 32 nM | B37
38 | 600 nM | B38
39 | 15 nM | B39
40 | 27 nM | B40
41 | 17 nM | B41
42 | 15 nM | B42
43 | 370 nM | B43
44 | 10 nM | B44
45 | 11 nM | B45
